Measurements reported in patent US20260042834A1, “ANTI-CORTICOTROPIN-RELEASING HORMONE ANTIBODIES AND POLYCYSTIC OVARY SYNDROME” (HBM ALPHA THERAPEUTICS, INC., priority 2022, published 2026).
Substitutions are numbered along the chain they refer to. One block for each molecule: values may come before it.

Experiments:
human CRHR2 = experiment: CRH-induced luciferase reporter blocking assay, CHO-CRE-hCRHR2 cells; type: cell-based; details: CHO-CRE-hCRHR2 cells, 0.1 nM CRH
In short: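 CHO-CRE reporter cells stably expressing mouse or human CRHR2 were treated with serially diluted antibodies (8 points, 1:4) plus CRH at final 5 nM (mCRHR2) or 0.1 nM (hCRHR2), 4-6 hours at 37° C. CRE-driven luciferase read by luminescence after 10 min with detection reagent.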

mouse CRHR2 = experiment: CRH-induced luciferase reporter blocking assay, CHO-CRE-mCRHR2 cells; type: cell-based; details: CHO-CRE-mCRHR2 cells, 5 nM CRH
In short: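 CHO-CRE cells stably expressing mouse CRHR2 were seeded overnight, then given serially diluted antibodies (8 points, 1:4) together with CRH at 5 nM final. After 4–6 h at 37 °C, CRE-driven luciferase was read by Bio-Glo luminescence.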

biotinylated CRH = biological target: T1, biotinylated CRH (Homo sapiens, UniProt P06850); experiment: Affinity determination with Octet; type: binding
T1 construct: purchased GL Biochem 784751
T1 sequence (P06850 154-194): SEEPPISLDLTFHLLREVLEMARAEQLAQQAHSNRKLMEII
In short: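 Biolayer interferometry: 30 nM biotinylated CRH loaded onto streptavidin sensors, 2-fold antibody dilutions as analyte in PBS kinetics buffer. Association 180 s, dissociation 800 s, glycine pH 1.5 regeneration; double-referenced data fitted for affinity.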

[1] = system: constitutively high plasma ACTH in Mrap1 KO mice; experiment: Mrap1 KO mice constitutively high ACTH model; type: in vivo, mouse; details: for plasma ACTH concentrations in Mrap1 KO mice: single dose 20 mg/kg
Protocol: 8-10 week old wildtype female C57BL/6 mice were obtained from Charles River Laboratories. Mrap1 KO mice were obtained from Queen Mary University of London, UK. SSR125543A, a small molecule CRHR1 antagonist, was obtained from Axon Medchem (Cat #Axon 1799). Mouse Corticosterone (55-Corms-E01) and adrenocorticotropic hormone (ACTH) ELISA kits (21-ACTHU-E01) were obtained from ALPCO, USA. All procedures were carried out in accordance with the Guide for the Care and Use of Laboratory Animals of the National Institutes of Health. Protocols were approved by Charles River Laboratories Institutional Animal Care and Use Committee (IACUC).
To generate Mrap1 KO mice, Mrap1−/− male mice were bred with Mrap1+/− female mice. Corticosterone hormone replacement was performed by administering 50 μg/ml in drinking water to breeder cages when female mice were pregnant and their pregnancies palpable (approximately embryonic day 10). Drinking water was changed weekly, and treatment was stopped at weaning. Mice were uniquely identified with ear tags at the time of tail clipping to match future genotype with each mouse. DNA was extracted from tail tissue and used to genotype mice.
[…] On day 2 or 3, 14 and 28, 200 μl of blood was collected in EDTA tubes from the submandibular vein of each mouse. Plasma was separated using a refrigerated centrifuge (4° C. at 500×g for 10 min) and snap-frozen in dry ice for subsequent ACTH ELISA measurement.

- IC50 (human CRHR2): 2.01 nM
- IC50 (mouse CRHR2): 2.03 nM
- kdis (biotinylated CRH): <1e-07 s⁻¹
- kon (biotinylated CRH): 606000 M⁻¹ s⁻¹
B1: PR302334-24: humanized variant of Series 9 mAb PR302334; VH SEQ ID NO: 275, VL SEQ ID NO: 328 (antibody, V domains shown)
VH: EVQLVESGGGLVKPGGSLRLSCAASGFTFSTYAMSWVRQAPGKGLEWVASIRSGGTTYYPDSVKGRFTISRDNAKNSLYLQMNSLRAEDTAVYYCTRGIDWGQGTTVTVSS
VL: DIVMTQSPDSLAVSLGERATINCKASQSVNNDVAWYQQKPGQPPRLLIYYASNRYTGVPDRFSGSGSGTDFTLTISSLQAEDLAVYFCQQDYSSWTFGGGTKVEIK
modifications: PR302334-16 VH, PR302334-24 VH, PR302334-25 VH; PR302334-10 VL, PR302334-24 VL, PR302334-26 VL, PR302334-4 VL
- inhibition of ACTH versus SSR125543A ([1]; Mrap1 KO mice): more complete inhibition
- efficacy versus SSR125543A, ACTH levels ([1]; Mrap1 KO mice, day 2 and day 14, figure legend, doses not given): superior efficacy
- efficacy in reducing plasma ACTH levels versus SSR125543A at 30 mg/kg ([1]; Mrap1 KO mice, mAb 5 mg/kg): more efficacious
- efficacy in reducing plasma ACTH levels versus SSR125543A at 30 mg/kg ([1]; Mrap1 KO mice, mAb 10 mg/kg): more efficacious
- efficacy in reducing plasma ACTH levels versus SSR125543A at 30 mg/kg ([1]; Mrap1 KO mice, mAb 20 mg/kg): more efficacious
- plasma ACTH concentrations in Mrap1 KO mice [1]: significantly reduced

- IC50 (human CRHR2): 1.24 nM
- IC50 (mouse CRHR2): 1.47 nM
- kdis (biotinylated CRH): <1e-07 s⁻¹
- kon (biotinylated CRH): 329000 M⁻¹ s⁻¹
B2: PR302334-26: humanized variant of Series 9 mAb PR302334; VH SEQ ID NO: 277, VL SEQ ID NO: 328 (antibody, V domains shown)
VH: B1 VH with K13Q, A74S
VL: B1 VL
modifications: PR302334-18 VH, PR302334-26 VH, PR302334-27 VH; PR302334-10 VL, PR302334-24 VL, PR302334-26 VL, PR302334-4 VL
- plasma ACTH concentrations in Mrap1 KO mice [1]: markedly reduced
